Like-named read-outs stand apart in the source and are kept apart here.

This note sets out measurements from patent US12215130 (dated 2025).

Experiment [1] concerns the target Human serum albumin (human).
In experiment [2] the target is Human serum albumin (human). Nature of the experiment: BLI, pH 7.4.
The target of experiment [3] is T1, Cynomolgus monkey serum albumin (cynomolgus monkey).
T1 chain: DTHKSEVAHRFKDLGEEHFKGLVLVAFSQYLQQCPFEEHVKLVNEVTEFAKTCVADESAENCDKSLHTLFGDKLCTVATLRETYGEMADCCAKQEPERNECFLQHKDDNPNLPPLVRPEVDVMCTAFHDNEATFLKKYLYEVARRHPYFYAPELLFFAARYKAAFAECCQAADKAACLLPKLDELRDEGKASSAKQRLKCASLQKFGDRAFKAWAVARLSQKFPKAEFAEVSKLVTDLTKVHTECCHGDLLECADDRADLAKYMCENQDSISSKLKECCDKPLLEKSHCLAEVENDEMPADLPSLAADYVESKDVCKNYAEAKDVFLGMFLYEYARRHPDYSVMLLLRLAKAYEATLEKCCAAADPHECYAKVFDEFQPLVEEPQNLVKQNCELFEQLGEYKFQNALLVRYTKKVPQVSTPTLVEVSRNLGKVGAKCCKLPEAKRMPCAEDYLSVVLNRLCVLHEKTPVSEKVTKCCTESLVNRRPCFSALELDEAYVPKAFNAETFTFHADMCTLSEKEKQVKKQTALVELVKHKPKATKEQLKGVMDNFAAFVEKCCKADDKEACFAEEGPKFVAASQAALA
Nature of the experiment: BLI, pH 5.5.

Experiment [4] concerns the target T1, Cynomolgus monkey serum albumin. The experiment is described as follows: BLI, pH 7.4.
The target in experiment [5] is Human serum albumin (human). The experiment is described as follows: BLI, pH 5.5.

In the experiment with Human serum albumin [1], LAEAKVLANRELDKYGVSDYYKNLINNAKTVEGVKALIDEILAALP [G148-ABD-wt] came in with a Kd of around 1.2 nM.

B1: AWT-P367 (antibody, V domains shown)
VH: QVQLVESGGGLVQPGGSLRLSCAASGSTWSINTLAWYRQAPGKQRDLVARISSGGSTHYADSVKGRFTVSRDNAENTLVLQMNSLKPEDTAVYYCYAQSTWYPPSWGQGTQVTVSS
For B1, the equilibrium dissociation constant (Kd) with Human serum albumin [2] amounted to 29.6 nM; in experiment [3], 20.5 nM; in experiment [4], 18.9 nM; with Human serum albumin [5], 9.6 nM.

B2: AWT-P610 (designed binder)
chain: QVQLVESGGGVVQPGGSLRLSCAASGFAFRGFGMSWVRQAPGKGLEWVSSINNGGSDTYYADSVKGRFTISRDNSKNTLYLQMNSLRAEDTAVYYCAIGGPGASPSGQGTQVTVSS
In the case of B2, the Kd turned out to be 43 nM in the experiment with Human serum albumin [2], 47.1 nM in experiment [3], 49.6 nM in experiment [4] and 39.8 nM in the experiment with Human serum albumin [5].
